T1: Bovine, dephosphorylated, Myelin Basic Protein (MBP), P02687
T1 chain: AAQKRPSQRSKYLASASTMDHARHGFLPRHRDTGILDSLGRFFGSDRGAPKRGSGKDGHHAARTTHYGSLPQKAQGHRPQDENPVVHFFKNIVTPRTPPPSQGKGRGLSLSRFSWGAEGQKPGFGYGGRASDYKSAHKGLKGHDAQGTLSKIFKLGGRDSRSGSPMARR


Molecular target: T1, Bovine, dephosphorylated, Myelin Basic …

Protein	MBP Kinase Activity
ROCK2 (protein) MSRPPPTGKMPGAPETAPGDGAGASRQRKLEALIRDPRSPINVESLLDGLNSLVLDLDFPALRKNKNIDNFLNRYEKIVKKIRGLQMKAEDYDVVKVIGRGAFGEVQLVRHKASQKVYAMKLLSKFEMIKRSDSAFFWEERDIMAFANSPWVVQLFYAFQDDRYLYMVMEYMPGGDLVNLMSNYDVPEKWAKFYTAEVVLALDAIHSMGLIHRDVKPDNMLLDKHGHLKLADFGTCMKMDETGMVHCDTAVGTPDYISPEVLKSQGGDGFYGRECDWWSVGVFLYEMLVGDTPFYADSLVGTYSKIMDHKNSLCFPEDAEISKHAKNLICAFLTDREVRLGRNGVEEIRQHPFFKNDQWHWDNIRETAAPVVPELSSDIDSSNFDDIEDDKGDVETFPIPKAFVGNQLPFIGFTYYRENLLLSDSPSCRETDSIQSRKNEESQEIQKKLYTLEEHLSNEMQAKEELEQKCKSVNTRLEKTAKELEEEITLRKSVESALRQLEREKALLQHKNAEYQRKADHEADKKRNLENDVNSLKDQLEDLKKRNQNSQI	Strong
ROCK1 (protein) MSTGDSFETRFEKMDNLLRDPKSEVNSDCLLDGLDALVYDLDFPALRKNKNIDNFLSRYKDTINKIRDLRMKAEDYEVVKVIGRGAFGEVQLVRHKSTRKVYAMKLLSKFEMIKRSDSAFFWEERDIMAFANSPWVVQLFYAFQDDRYLYMVMEYMPGGDLVNLMSNYDVPEKWARFYTAEVVLALDAIHSMGFIHRDVKPDNMLLDKSGHLKLADFGTCMKMNKEGMVRCDTAVGTPDYISPEVLKSQGGDGYYGRECDWWSVGVFLYEMLVGDTPFYADSLVGTYSKIMNHKNSLTFPDDNDISKEAKNLICAFLTDREVRLGRNGVEEIKRHLFFKNDQWAWETLRDTVAPVVPDLSSDIDTSNFDDLEEDKGEEETFPIPKAFVGNQLPFVGFTYYSNRRYLSSANPNDNRTSSNADKSLQESLQKTIYKLEEQLHNEMQLKDEMEQKCRTSNIKLDKIMKELDEEGNQRRNLESTVSQIEKEKMLLQHRINEYQRKAEQENEKRRNVENEVSTLKDQLEDLKKVSQNSQL	Strong
RPS6KB1(p70S6K) (protein) MRRRRRRDGFYPAPDFRDREAEDMAGVFDIDLDQPEDAGSEDELEEGGQLNESMDHGGVGPYELGMEHCEKFEISETSVNRGPEKIRPECFELLRVLGKGGYGKVFQVRKVTGANTGKIFAMKVLKKAMIVRNAKDTAHTKAERNILEEVKHPFIVDLIYAFQTGGKLYLILEYLSGGELFMQLEREGIFMEDTACFYLAEISMALGHLHQKGIIYRDLKPENIMLNHQGHVKLTDFGLCKESIHDGTVTHTFCGTIEYMAPEILMRSGHNRAVDWWSLGALMYDMLTGAPPFTGENRKKTIDKILKCKLNLPPYLTQEARDLLKKLLKRNAASRLGAGPGDAGEVQAHPFFRHINWEELLARKVEPPFKPLLQSEEDVSQFDSKFTRQTPVDSPDDSTLSESANQVFLGFEYVAPSVLES	Negative
PRKX (protein) MEAPGLAQAAAAESDSRKVAEETPDGAPALCPSPEALSPEPPVYSLQDFDTLATVGTGTFGRVHLVKEKTAKHFFALKVMSIPDVIRLKQEQHVHNEKSVLKEVSHPFLIRLFWTWHDERFLYMLMEYVPGGELFSYLRNRGRFSSTTGLFYSAEIICAIEYLHSKEIVYRDLKPENILLDRDGHIKLTDFGFAKKLVDRTWTLCGTPEYLAPEVIQSKGHGRAVDWWALGILIFEMLSGFPPFFDDNPFGIYQKILAGKIDFPRHLDFHVKDLIKKLLVVDRTRRLGNMKNGANDVKHHRWFRSVDWEAVPQRKLKPPIVPKIAGDGDTSNFETYPENDWDTAAPVPQKDLEIFKNF	Negative
RPS6KA4(MSK2) (protein) MGDEDDDESCAVELRITEANLTGHEEKVSVENFELLKVLGTGAYGKVFLVRKAGGHDAGKLYAMKVLRKAALVQRAKTQEHTRTERSVLELVRQAPFLVTLHYAFQTDAKLHLILDYVSGGEMFTHLYQRQYFKEAEVRVYGGEIVLALEHLHKLGIIYRDLKLENVLLDSEGHIVLTDFGLSKEFLTEEKERTFSFCGTIEYMAPEIIRSKTGHGKAVDWWSLGILLFELLTGASPFTLEGERNTQAEVSRRILKCSPPFPPRIGPVAQDLLQRLLCKDPKKRLGAGPQGAQEVRNHPFFQGLDWVALAARKIPAPFRPQIRSELDVGNFAEEFTRLEPVYSPPGSPPPGDPRIFQGYSFVAPSILFDHNNAVMTDGLEAPGAGDRPGRAAVARSAMMQDSPFFQQYELDLREPALGQGSFSVCRRCRQRQSGQEFAVKILSRRLEANTQREVAALRLCQSHPNVVNLHEVHHDQLHTYLVLELLRGGELLEHIRKKRHFSESEASQILRSLVSAVSFMHEEAGVVHRDLKPENILYADDTPGAPVKIIDFGFARLRPQSPGVPMQTPCFTLQYAAPELLAQQGYDESCDLWSLGVILYMMLSGQVPFQGASGQGGQSQAAEIMCKIREGRFSLDGEAWQGVSEEAKELVRGLLTVDPAKRLKLEGLRGSSWLQDGSARSSPPLRTPDVLESSGPAVRSGLNATFMAFNRGKREGFFLKSVENAPLAKRRKQKLRSATASRRGSPAPANPGRAPVASKGAPRRANGPLPPS	Weak
RPS6KA1(RSK1) (protein) MPLAQLKEPWPLMELVPLDPENGQTSGEEAGLQPSKDEGVLKEISITHHVKAGSEKADPSHFELLKVLGQGSFGKVFLVRKVTRPDSGHLYAMKVLKKATLKVRDRVRTKMERDILADVNHPFVVKLHYAFQTEGKLYLILDFLRGGDLFTRLSKEVMFTEEDVKFYLAELALGLDHLHSLGIIYRDLKPENILLDEEGHIKLTDFGLSKEAIDHEKKAYSFCGTVEYMAPEVVNRQGHSHSADWWSYGVLMFEMLTGSLPFQGKDRKETMTLILKAKLGMPQFLSTEAQSLLRALFKRNPANRLGSGPDGAEEIKRHVFYSTIDWNKLYRREIKPPFKPAVAQPDDTFYFDTEFTSRTPKDSPGIPPSAGAHQLFRGFSFVATGLMEDDGKPRAPQAPLHSVVQQLHGKNLVFSDGYVVKETIGVGSYSECKRCVHKATNMEYAVKVIDKSKRDPSEEIEILLRYGQHPNIITLKDVYDDGKHVYLVTELMRGGELLDKILRQKFFSEREASFVLHTIGKTVEYLHSQGVVHRDLKPSNILYVDESGNPECLRICDFGFAKQLRAENGLLMTPCYTANFVAPEVLKRQGYDEGCDIWSLGILLYTMLAGYTPFANGPSDTPEEILTRIGSGKFTLSGGNWNTVSETAKDLVSKMLHVDPHQRLTAKQVLQHPWVTQKDKLPQSQLSHQDLQLVKGAMAATYSALNSSKPTPQLKPIESSILAQRRVRKLPSTTL	Strong
EPHB4 (protein) LCLRKQSNGREAEYSDKHGQYLIGHGTKVYIDPFTYEDPNEAVREFAKEIDVSYVKIEEVIGAGEFGEVCRGRLKAPGKKESCVAIKTLKGGYTERQRREFLSEASIMGQFEHPNIIRLEGVVTNSMPVMILTEFMENGALDSFLRLNDGQFTVIQLVGMLRGIASGMRYLAEMSYVHRDLAARNILVNSNLVCKVSDFGLSRFLEENSSDPTYTSSLGGKIPIRWTAPEAIAFRKFTSASDAWSYGIVMWEVMSFGERPYWDMSNQDVINAIEQDYRLPPPPDCPTSLHQLMLDCWQKDRNARPRFPQVVSALDKMIRNPASLKIVARENGGASHPLLDQRQPHYSAFGSVGEWLRAIKMGRYEESFAAAGFGSFELVSQISAEDLLRIGVTLAGHQKKILASVQHMKSQAKPGTPGGTGGPAPQY	Strong
PRKCN(PKD3) (protein) MSANNSPPSAQKSVLPTAIPAVLPAASPCSSPKTGLSARLSNGSFSAPSLTNSRGSVHTVSFLLQIGLTRESVTIEAQELSLSAVKDLVCSIVYQKFPECGFFGMYDKILLFRHDMNSENILQLITSADEIHEGDLVEVVLSALATVEDFQIRPHTLYVHSYKAPTFCDYCGEMLWGLVRQGLKCEGCGLNYHKRCAFKIPNNCSGVRKRRLSNVSLPGPGLSVPRPLQPEYVALPSEESHVHQEPSKRIPSWSGRPIWMEKMVMCRVKVPHTFAVHSYTRPTICQYCKRLLKGLFRQGMQCKDCKFNCHKRCASKVPRDCLGEVTFNGEPSSLGTDTDIPMDIDNNDINSDSSRGLDDTEEPSPPEDKMFFLDPSDLDVERDEEAVKTISPSTSNNIPLMRVVQSIKHTKRKSSTMVKEGWMVHYTSRDNLRKRHYWRLDSKCLTLFQNESGSKYYKEIPLSEILRISSPRDFTNISQGSNPHCFEIITDTMVYFVGENNGDSSHNPVLAATGVGLDVAQSWEKAIRQALMPVTPQASVCTSPGQGKDHKDLSTSISVSNCQIQENVDISTVYQIFADEVLGSGQFGIVYGGKHRKTGRDVAIKVIDKMRFPTKQESQLRNEVAILQNLHHPGIVNLECMFETPERVFVVMEKLHGDMLEMILSSEKSRLPERITKFMVTQILVALRNLHFKNIVHCDLKPENVLLASAEPFPQVKLCDFGFARIIGEKSFRRSVVGTPAYLAPEVLRSKGYNRSLDMWSVGVIIYVSLSGTFPFNEDEDINDQIQNAAFMYPPNPWREISGEAIDLINNLLQVKMRKRYSVDKSLSHPWLQDYQTWLDLREFETRIGERYITHESDDARWEIHAYTHNLVYPKHFIMAPNPDDMEEDP	Weak
RPS6KA2(RSK3) (protein) MDLSMKKFAVRRFFSVYLRRKSRSKSSSLSRLEEEGVVKEIDISHHVKEGFEKADPSQFELLKVLGQGSYGKVFLVRKVKGSDAGQLYAMKVLKKATLKVRDRVRSKMERDILAEVNHPFIVKLHYAFQTEGKLYLILDFLRGGDLFTRLSKEVMFTEEDVKFYLAELALALDHLHSLGIIYRDLKPENILLDEEGHIKITDFGLSKEAIDHDKRAYSFCGTIEYMAPEVVNRRGHTQSADWWSFGVLMFEMLTGSLPFQGKDRKETMALILKAKLGMPQFLSGEAQSLLRALFKRNPCNRLGAGIDGVEEIKRHPFFVTIDWNTLYRKEIKPPFKPAVGRPEDTFHFDPEFTARTPTDSPGVPPSANAHHLFRGFSFVASSLIQEPSQQDLHKVPVHPIVQQLHGNNIHFTDGYEIKEDIGVGSYSVCKRCVHKATDTEYAVKIIDKSKRDPSEEIEILLRYGQHPNIITLKDVYDDGKFVYLVMELMRGGELLDRILRQRYFSEREASDVLCTITKTMDYLHSQGVVHRDLKPSNILYRDESGSPESIRVCDFGFAKQLRAGNGLLMTPCYTANFVAPEVLKRQGYDAACDIWSLGILLYTMLAGFTPFANGPDDTPEEILARIGSGKYALSGGNWDSISDAAKDVVSKMLHVDPHQRLTAMQVLKHPWVVNREYLSPNQLSRQDVHLVKGAMAATYFALNRTPQAPRLEPVLSSNLAQRRGMKRLTSTRL	Negative
